Patent US5985836A, “Alpha-1 proteinase inhibitor binding peptides” (Bayer Corporation, priority 1998, dated 1999)
Ends that are not written are not given here.

Target: T1, AlPI (Homo sapiens, UniProt P01009)
T1 construct: Eff; II+III is a process intermediate in the Cohn plasma fractionation process; tissue Bayer Corporation (Clayton, N.C.); host or cells: plasma fraction: Cohn Effluent II+III
Test: Effect of peptide density on AlPI capture from Eff. II+III, 4M GdnHCl final strip
Assay type: binding
Conditions: 4° C.; for Mass AlPI per Eluate Fraction, 1M NaCl / Mass AlPI per Eluate Fraction, Flowthrough / Mass AlPI per Eluate Fraction, 4M GdnHCl: * Below detection limit
Experimental: The substitution density of the peptide VIFLVR (SEQ ID NO:37) on the Tosohaas resin was reduced by the varying the ratio of Fmoc-L-Ala/Boc-L-Ala following linkage of the Totda linker. A similar procedure was outlined previously (Buettner et al. 1997). The peptide was then synthesized onto these resins. A 1.0 ml aliquot of neat Eff. II+III was injected onto the columns, and the chromatography cycle was the same as used for other studies involving Eff. II+III. The one exception was the use of 4M guanidine hydrochloride (GdnHCl) in lieu of 2% acetic acid as the final strip.

T1 sequence (P01009 25-418): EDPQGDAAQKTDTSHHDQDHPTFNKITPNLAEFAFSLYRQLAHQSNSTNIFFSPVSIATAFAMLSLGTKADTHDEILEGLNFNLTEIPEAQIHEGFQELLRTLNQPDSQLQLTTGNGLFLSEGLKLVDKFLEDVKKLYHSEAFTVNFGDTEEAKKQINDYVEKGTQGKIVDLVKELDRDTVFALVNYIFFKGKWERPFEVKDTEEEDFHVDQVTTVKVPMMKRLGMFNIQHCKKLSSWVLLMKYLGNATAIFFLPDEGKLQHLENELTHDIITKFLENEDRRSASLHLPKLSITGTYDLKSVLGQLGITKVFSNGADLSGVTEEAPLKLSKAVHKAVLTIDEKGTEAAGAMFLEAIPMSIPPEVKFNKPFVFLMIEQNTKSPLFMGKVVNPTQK

**Q.** For VIFLVR, which “Percent Eluted by Fraction, 1M NaCl” value (peptide density 6 μmol/g) is on record?
**A.** Its value is 12%.

**Q.** What about the “Percent Eluted by Fraction, 4M GdnHCl” value (peptide density 6 μmol/g) of the same substance?
**A.** Its value is 0%.

**Q.** What about the “Percent Eluted by Fraction, Flowthrough” value (peptide density 6 μmol/g) of the same substance?
**A.** The value was 88%.

**Q.** What about the “Mass AlPI per Eluate Fraction, 1M NaCl” value (peptide density 6 μmol/g) of the same substance?
**A.** The value was 0.09 mg.

**Q.** What about the “Mass AlPI per Eluate Fraction, Flowthrough” value (peptide density 6 μmol/g) of the same substance?
**A.** The value was 0.69 mg.

**Q.** What about the “Percent Eluted by Fraction, 1M NaCl” value (peptide density 17 μmol/g) of the same substance?
**A.** Its value is 44%.

**Q.** And the “Percent Eluted by Fraction, 4M GdnHCl” value (peptide density 17 μmol/g)?
**A.** Its value is 7%.

**Q.** What about the “Percent Eluted by Fraction, Flowthrough” value (peptide density 17 μmol/g) of the same substance?
**A.** The value was 49%.

**Q.** What about the “Mass AlPI per Eluate Fraction, 1M NaCl” value (peptide density 17 μmol/g) of the same substance?
**A.** Its value is 0.36 mg.

**Q.** What about the “Mass AlPI per Eluate Fraction, 4M GdnHCl” value (peptide density 17 μmol/g) of the same substance?
**A.** Its value is 0.05 mg.

**Q.** What about the “Mass AlPI per Eluate Fraction, Flowthrough” value (peptide density 17 μmol/g) of the same substance?
**A.** The value was 0.39 mg.

**Q.** What about the “Percent Eluted by Fraction, 1M NaCl” value (peptide density 54 μmol/g) of the same substance?
**A.** The value was 0%.

**Q.** And the “Percent Eluted by Fraction, 4M GdnHCl” value (peptide density 54 μmol/g)?
**A.** Its value is 74%.

**Q.** And the “Percent Eluted by Fraction, Flowthrough” value (peptide density 54 μmol/g)?
**A.** The value was 26%.

**Q.** What about the “Mass AlPI per Eluate Fraction, 4M GdnHCl” value (peptide density 54 μmol/g) of the same substance?
**A.** The value was 0.57 mg.

**Q.** What about the “Mass AlPI per Eluate Fraction, Flowthrough” value (peptide density 54 μmol/g) of the same substance?
**A.** The value was 0.20 mg.

**Q.** And the “Percent Eluted by Fraction, 1M NaCl” value (peptide density 62 μmol/g)?
**A.** Its value is 0%.

**Q.** And the “Percent Eluted by Fraction, 4M GdnHCl” value (peptide density 62 μmol/g)?
**A.** The value was 83%.

**Q.** What about the “Percent Eluted by Fraction, Flowthrough” value (peptide density 62 μmol/g) of the same substance?
**A.** Its value is 17%.

**Q.** What about the “Mass AlPI per Eluate Fraction, 4M GdnHCl” value (peptide density 62 μmol/g) of the same substance?
**A.** Its value is 0.70 mg.

**Q.** And the “Mass AlPI per Eluate Fraction, Flowthrough” value (peptide density 62 μmol/g)?
**A.** The value was 0.14 mg.

**Q.** What about the “Percent Eluted by Fraction, 1M NaCl” value (peptide density 70 μmol/g) of the same substance?
**A.** The value was 0%.

**Q.** What about the “Percent Eluted by Fraction, 4M GdnHCl” value (peptide density 70 μmol/g) of the same substance?
**A.** Its value is 72%.

**Q.** And the “Percent Eluted by Fraction, Flowthrough” value (peptide density 70 μmol/g)?
**A.** The value was 28%.

**Q.** And the “Mass AlPI per Eluate Fraction, 4M GdnHCl” value (peptide density 70 μmol/g)?
**A.** The value was 0.69 mg.

**Q.** And the “Mass AlPI per Eluate Fraction, Flowthrough” value (peptide density 70 μmol/g)?
**A.** The value was 0.26 mg.

**Q.** And the “Percent Eluted by Fraction, 1M NaCl” value (peptide density 100 μmol/g)?
**A.** The value was 0%.

**Q.** What about the “Percent Eluted by Fraction, 4M GdnHCl” value (peptide density 100 μmol/g) of the same substance?
**A.** Its value is 82%.

**Q.** What about the “Percent Eluted by Fraction, Flowthrough” value (peptide density 100 μmol/g) of the same substance?
**A.** The value was 18%.

**Q.** And the “Mass AlPI per Eluate Fraction, 4M GdnHCl” value (peptide density 100 μmol/g)?
**A.** The value was 0.57 mg.

**Q.** What about the “Mass AlPI per Eluate Fraction, Flowthrough” value (peptide density 100 μmol/g) of the same substance?
**A.** The value was 0.13 mg.
